Experimental findings from IntAct's records for PubMed 27150041 are described below.

The labels stand for the following.
B1: Smu-2 suppressor of mec-8 and unc-52 protein (Caenorhabditis elegans), Q9N4U5 (parent)
chain: MADNPTNLRNADFRKLLTSARSDRPAVSAFAKPADPKTGDDKPASFKHKHLKPAKFKKPQAAAHGKAKKEKTEADEDEAALKNILKNYRDRAAERRKQGDEKEDPSKLTAAYRAVPGDARSAQDQADLRKQAILESKYLGGDLEHTHLVKGLDYSLLNKVRSEIDKSDDDDDDDIDTAFDEKVTSSSSSSKPSEASLLAQELAQSHSENRMVRSLHRVLFKNEVPLHNQLFAKGRMAYVVELEDEETDIPTTLLRSLHDLPRAESAQSIQANNLIILKLSHVLSHLRAEPKKKKKEEFRVQLGSRDAPGAAAAAPGAKGDSIYDDLDDYVPSRKSRDSRDAGRRGSRRDRSRDRSRDRDRDRDRDNRDRYFEKSANSRREEEQNRREQQRERERAEQERRREREKEREQEKAKEREKKRKELEESSGYDECYPGGLVEMGGAWDSDEEADYSKMDAGPKKNQAVNRWDFDTEEEYASYMEGREALPKAAYQYGVKNGEGGRKNKKQSAVSDAKRLDRELNEINKIMDKRKAGGDGAGGGGDYKKPKY

Variants of B1 are the subject of this assay. The conditions noted are these: with smu1_caeel smu-1, G5EEG7.
Chain of smu1_caeel smu-1, G5EEG7 (G5EEG7 whole entry): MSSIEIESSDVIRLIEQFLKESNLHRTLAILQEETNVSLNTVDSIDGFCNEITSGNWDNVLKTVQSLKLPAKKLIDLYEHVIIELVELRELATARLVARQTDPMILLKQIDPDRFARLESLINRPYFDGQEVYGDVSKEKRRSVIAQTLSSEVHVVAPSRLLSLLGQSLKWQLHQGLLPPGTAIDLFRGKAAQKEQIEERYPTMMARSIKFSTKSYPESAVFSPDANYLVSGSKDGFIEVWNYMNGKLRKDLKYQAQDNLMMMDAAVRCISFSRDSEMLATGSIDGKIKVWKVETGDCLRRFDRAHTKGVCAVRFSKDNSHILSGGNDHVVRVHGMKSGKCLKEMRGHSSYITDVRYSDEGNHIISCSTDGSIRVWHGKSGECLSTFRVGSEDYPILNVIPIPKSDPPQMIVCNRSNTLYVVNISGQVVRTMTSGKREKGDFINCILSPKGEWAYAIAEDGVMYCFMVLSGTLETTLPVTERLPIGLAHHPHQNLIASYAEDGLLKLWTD
Consider MADNPTNLRNADFRKLLTSARSDRPAVSAFAKPADPKTGDDKPASFKHKHLKPAKFKKPQAAAHGKAKKEKTEADEDEAALKNILKNYRDRAAERRKQGDEKEDPSKLTAAYRAVPGDARSAQDQADLRKQAILESKYLGGDLEHTHLVKGLDYSLLNKVRSEIDKSDDDDDDDIDTAFDEKVTSSSSSSKPSEASLLAQELAQSHSENRMVRSLHRVLRKNEVPLHNQLFAKGRMAYVVELEDEETDIPTTLLRSLHDLPRAESAQSIQANNLIILKLSHVLSHLRAEPKKKKKEEFRVQLGSRDAPGAAAAAPGAKGDSIYDDLDDYVPSRKSRDSRDAGRRGSRRDRSRDRSRDRDRDRDRDNRDRYFEKSANSRREEEQNRREQQRERERAEQERRREREKEREQEKAKEREKKRKELEESSGYDECYPGGLVEMGGAWDSDEEADYSKMDAGPKKNQAVNRWDFDTEEEYASYMEGREALPKAAYQYGVKNGEGGRKNKKQSAVSDAKRLDRELNEINKIMDKRKAGGDGAGGGGDYKKPKY [F220R], for which the “effect of a mutation on the interaction” value was “disrupting interaction strength”.
As to MADNPTNLRNADFRKLLTSARSDRPAVSAFAKPADPKTGDDKPASFKHKHLKPAKFKKPQAAAHGKAKKEKTEADEDEAALKNILKNYRDRAAERRKQGDEKEDPSKLTAAYRAVPGDARSAQDQADLRKQAILESKYLGGDLEHTHLVKGLDYSLLNKVRSEIDKSDDDDDDDIDTAFDEKVTSSSSSSKPSEASLLAQELAQSHSENRMRRSLHRVLFKNEVPLHNQLFAKGRMAYVVELEDEETDIPTTLLRSLHDLPRAESAQSIQANNLIILKLSHVLSHLRAEPKKKKKEEFRVQLGSRDAPGAAAAAPGAKGDSIYDDLDDYVPSRKSRDSRDAGRRGSRRDRSRDRSRDRDRDRDRDNRDRYFEKSANSRREEEQNRREQQRERERAEQERRREREKEREQEKAKEREKKRKELEESSGYDECYPGGLVEMGGAWDSDEEADYSKMDAGPKKNQAVNRWDFDTEEEYASYMEGREALPKAAYQYGVKNGEGGRKNKKQSAVSDAKRLDRELNEINKIMDKRKAGGDGAGGGGDYKKPKY [V212R], the “effect of a mutation on the interaction” value is given as “disrupting interaction strength”.
